Data set [1] addresses T1, YY1 (full length) (Mus musculus, UniProt Q00899 Q00899:1-414). Put plainly: EMSA; tethered RNA outcompetes DNA with untethered RNA; IC50 values only in figure. The note with it: tags: N-terminal His6; label: 32P (probe 2); 30-bp DNA duplex with 30-nt RNA overhang at each 3' end.
Data set [2] has as its target T2, OCT4 (Homo sapiens, UniProt Q01860 Q01860:1-360). The experiment in a line: EMSA; legend: OCT4 does not bind RNA in vitro. The note with it: tags: Abcam ab134876; label: 32P. The method, then:
(§1) The x-axis indicates distance from the TSS in kilobases. The y-axis indicates average density of uniquely mapped reads per genomic bin. […] A radioactively labeled 40-bp DNA probe containing OCT4 consensus binding motif derived from the enhancer of Lefty1 gene was incubated with 250 nM of the recombinant human OCT4 (Abcam, # ab134876). In competition EMSA, 100-fold molar excess of cold competitor DNA containing the OCT4 motif (Lefty1 DNA comp), cold DNA competitor, in which bases adjacent the OCT4 motif were randomly substituted (mut Lefty1 DNA comp), cold DNA competitor lacking the OCT4 motif (Arid1a DNA comp), or cold RNA competitor (Arid1a RNA comp) was pre-incubated with the recombinant OCT4 before the radioactively labeled DNA probe was added to the binding reaction. The arrows indicate free probe and probe bound by OCT4.
(In general: In EMSA bound probe runs differently from free probe, usually more slowly.)

The target of data set [3] is T1, YY1 (full length). Put plainly: EMSA; weaker than DNA; 0.1 mM ZnCl2, 5 mM MgCl2. The note with it: tags: N-terminal His6; label: 32P. The method, then: (§2) 5 nM of radioactively labeled 30-bp DNA probe derived from the promoter region of Arid1a gene containing a consensus YY1 binding motif ([…]; SEQ ID NO: 4) was incubated with increasing concentrations of recombinant murine YY1 protein. Right panel: EMSA of YY1-RNA complexes at different concentrations of recombinant YY1. 5 nM of radioactively labeled 30-nt RNA probe derived from the same region of the Arid1a gene was incubated with increasing concentrations of recombinant YY1 protein.
(§3) EMSAs with the recombinant murine YY1 were performed in a similar way as those with the NE. DNA-binding reactions (20 μl) contained 10 mM HEPES-KOH pH 7.5, 12 mM Tris-HCl pH 7.4, 50 mM NaCl, 50 mM KCl, 5 mM MgCl₂, 0.1 mM ZnCl₂, 0.01% NP-40, 5% glycerol, 500 ng poly(dI-dC), 0.5 mM DTT, and recombinant murine YY1. RNA-binding reactions (20 μl) contained 10 mM HEPES-KOH pH 7.5, 12 mM Tris-HCl pH 7.4, 50 mM NaCl, 50 mM KCl, 5 mM MgCl₂, 0.1 mM ZnCl₂, 0.01% NP-40, 5% glycerol, 10 U SUPERase In RNase inhibitor (Life Technologies), 0.5 mM DTT, and recombinant murine YY1.

Data set [4] addresses T3, YY1 C-terminal region (zinc fingers) (Mus musculus, UniProt Q00899 Q00899:271-414). Put plainly: EMSA; zinc-finger region does not bind RNA. The note with it: label: 32P. The method, then:
(§4) Sizes of N-terminal and C-terminal regions of YY1 are drawn to scale. […] 5 nM of radioactively labeled 30-bp DNA probe derived from the promoter region of Arid1a gene containing a consensus YY1 binding motif was incubated with increasing concentrations of full-length recombinant murine YY1 protein (FL), the N-terminal portion of YY1 (N-term) lacking the zinc-fingers or the C-terminal portion (C-term) containing the zinc fingers. […] The arrows indicate free probe and probe bound by YY1. […] 5 nM of radioactively labeled 30-nt RNA probe derived from the promoter region of Arid1a gene was incubated with increasing concentrations of full-length recombinant murine YY1 protein (FL), the N-terminal portion of YY1 (N-term) lacking the zinc-fingers or the C-terminal portion (C-term) containing the zinc fingers. […] The arrows indicate free probe and probe bound by YY1;
(§5) EMSAs with the recombinant murine YY1 were performed in a similar way as those with the NE. DNA-binding reactions (20 μl) contained 10 mM HEPES-KOH pH 7.5, 12 mM Tris-HCl pH 7.4, 50 mM NaCl, 50 mM KCl, 5 mM MgCl₂, 0.1 mM ZnCl₂, 0.01% NP-40, 5% glycerol, 500 ng poly(dI-dC), 0.5 mM DTT, and recombinant murine YY1. […]

The target in the next data set is YY1 N-terminal region (Mus musculus, UniProt Q00899 Q00899:1-277). Put plainly: EMSA; N-terminal region binds RNA. The note with it: label: 32P. The method, then:
as §4, §5

The target of data set [5] is T2, OCT4. The experiment in a line: EMSA; 250 nM OCT4. The note with it: tags: Abcam ab134876; label: 32P. The method, then:
as §1

Data set [6] deals with T1, YY1 (full length). The experiment in a line: EMSA; higher affinity than for RNA; 0.1 mM ZnCl2, 5 mM MgCl2; binding curve only in FIG. 7B. The note with it: tags: N-terminal His6; label: 32P. The method, then:
as §2, §3

The target in data set [7] is T3, YY1 C-terminal region (zinc fingers). Put plainly: EMSA; zinc-finger region binds DNA. The note with it: label: 32P. The protocol: as §4, §5
Data set [8] deals with T1, YY1 (full length). The experiment in a line: competition; described as RNA incompatible with YY1 binding in vitro. The note with it: tags: N-terminal His6. The method, then:
A radioactively labeled 30-nt RNA probe containing sequence derived from the promoter region of Arid1a gene shown in blue above the image or the complementary sequence shown in pink was incubated with 400 nM of the recombinant murine YY1. The arrows indicate free probe and probe bound by YY1. […] Radioactively labeled 30-nt RNA probe derived from the promoter region of Arid1a gene was incubated with 400 nM of recombinant murine YY1. Sequence of the probe is shown above the image in blue. In competition EMSA, 100-fold molar excess of cold competitor RNA with the same sequence as the radiolabeled RNA (Arid1a RNA A), complementary sequence (Arid1a RNA 1), or a different sequence (Arid1a RNA B) was pre-incubated with the recombinant YY1 before the probe was added to the binding reaction. The arrows indicate free probe and probe bound by YY1. Asterisk indicates the position of double-stranded RNA formed when single-stranded cold RNA was incubated with the complementary labelled RNA probe. […] Radioactively labeled 30-nt RNA probe derived from the promoter region of Arid1a gene was incubated with 400 nM of recombinant murine YY1. Sequence of the probe and competitor RNA are shown above the image. For supershift assay, 0.5 μl of YY1 antibodies (# sc-7341) was added to the RNA probe. […]

The target in data set [9] is T1, YY1 (full length). The experiment in a line: EMSA; 240 nM YY1 in FIG. 9C. The note with it: tags: N-terminal His6; label: 32P. The protocol: A radioactively labeled 30-bp DNA probe containing YY1 consensus binding motif derived from the promoter region of Arid1a gene was incubated with 80 nM of the recombinant murine YY1. For supershift assay, 0.5 μl of YY1 antibodies (# sc-7341) was added to the DNA probe pre-incubated with the recombinant protein. In competition EMSA, 100-fold molar excess of cold competitor DNA containing YY1 motif (Spec comp) or lacking YY1 motif (Nspec comp) was pre-incubated with the recombinant YY1 before the radioactively labeled DNA probe was added to the binding reaction. The arrows indicate free probe, probe bound by YY1, probe bound by YY1 fragment, and supershifted probe. […] Radioactively labeled 30-bp DNA probe containing YY1 consensus binding motif derived from the promoter region of Rpl30 gene was incubated with 240 nM of the recombinant murine YY1. In competition EMSA, 100-fold molar excess of cold competitor RNA derived from the promoter region of Arid1a gene was pre-incubated with the recombinant murine YY1 before the radioactively labeled DNA probe was added to the binding reaction. The arrows indicate free probe and probe bound by YY1;
EMSAs with the recombinant murine YY1 were performed in a similar way as those with the NE. […]

T1 sequence (Q00899 whole entry, one chain of several): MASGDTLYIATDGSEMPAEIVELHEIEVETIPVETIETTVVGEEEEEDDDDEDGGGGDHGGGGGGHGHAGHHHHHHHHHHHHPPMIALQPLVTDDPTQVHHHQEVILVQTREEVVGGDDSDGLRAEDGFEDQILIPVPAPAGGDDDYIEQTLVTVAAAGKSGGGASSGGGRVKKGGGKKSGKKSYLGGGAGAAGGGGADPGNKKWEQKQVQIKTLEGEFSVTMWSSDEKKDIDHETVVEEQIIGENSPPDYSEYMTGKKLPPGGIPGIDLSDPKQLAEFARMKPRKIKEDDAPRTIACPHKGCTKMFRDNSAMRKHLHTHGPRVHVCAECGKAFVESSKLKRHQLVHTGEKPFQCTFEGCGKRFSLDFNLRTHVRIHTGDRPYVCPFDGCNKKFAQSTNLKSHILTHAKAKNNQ
T3 sequence (Q00899 271-414, one chain of several): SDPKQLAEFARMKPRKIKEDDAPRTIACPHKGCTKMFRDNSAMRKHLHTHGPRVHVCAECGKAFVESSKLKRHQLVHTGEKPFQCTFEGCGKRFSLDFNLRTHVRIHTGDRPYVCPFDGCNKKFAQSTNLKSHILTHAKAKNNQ
T2 sequence (Q01860 whole entry, one chain of several): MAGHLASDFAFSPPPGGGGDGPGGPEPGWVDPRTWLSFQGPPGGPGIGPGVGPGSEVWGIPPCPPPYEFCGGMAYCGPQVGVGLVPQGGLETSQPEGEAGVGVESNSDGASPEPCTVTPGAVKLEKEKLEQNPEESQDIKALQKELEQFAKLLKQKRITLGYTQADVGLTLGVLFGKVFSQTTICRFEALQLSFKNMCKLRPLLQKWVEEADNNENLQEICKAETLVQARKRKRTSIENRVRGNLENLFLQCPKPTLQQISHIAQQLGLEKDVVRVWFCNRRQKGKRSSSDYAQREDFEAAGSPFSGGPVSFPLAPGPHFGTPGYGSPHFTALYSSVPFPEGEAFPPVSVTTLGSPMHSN
YY1 N-terminal region, sequence (Q00899 1-277, one chain of several): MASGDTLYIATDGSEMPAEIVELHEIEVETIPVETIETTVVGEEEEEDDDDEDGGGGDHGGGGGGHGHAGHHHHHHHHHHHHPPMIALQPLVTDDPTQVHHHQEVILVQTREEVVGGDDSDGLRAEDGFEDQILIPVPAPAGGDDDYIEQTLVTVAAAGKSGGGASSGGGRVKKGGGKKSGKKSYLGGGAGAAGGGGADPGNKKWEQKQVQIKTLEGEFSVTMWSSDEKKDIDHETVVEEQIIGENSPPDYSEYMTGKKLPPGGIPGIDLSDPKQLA

B1: Rpl30 DNA with tethered Arid1a RNA (mixed)
mixed 1: TCGCTCCCCGGCCATCTTGGCGGCTGGTGTCUCUUCUCUCUUAAAAUGGCUGCCUGUCUG
mixed 2: ACACCAGCCGCCAAGATGGCCGGGGAGCGACUCUUCUCUCUUAAAAUGGCUGCCUGUCUG
Consider B1, for which the binding result in the data set with YY1 (full length) [1] is reported as “binds”.
CUCUUCUCUCUUAAAAUGGCUGCCUGUCUG (ssRNA) [Arid1a promoter RNA A]: the binding result is “no binding” with OCT4 [2], “binds” in the data set with YY1 (full length) [3], “no binding” in [4] and “binds” with YY1 N-terminal region.

B2: Lefty1 enhancer DNA (dsDNA)
DNA 1: GGTGGGAGGGAGACTGCCCTTTGTCATGTAGAAGGAGCTT
DNA 2: AAGCTCCTTCTACATGACAAAGGGCAGTCTCCCTCCCACC
On to B2, for which, in the data set with OCT4 [5], the binding result was “binds”.

B3: Arid1a promoter DNA with YY1 motif (dsDNA)
DNA 1: CTCTTCTCTCTTAAAATGGCTGCCTGTCTG
DNA 2: CAGACAGGCAGCCATTTTAAGAGAGAAGAG
On to B3, for which the binding result (with YY1 (full length) [6]; in data set [7]) was “binds” throughout.
In the case of CCCGCCUCCCCAGGCCUACGCGCUGAGCUC (ssRNA) [Arid1a promoter RNA B], in the data set with YY1 (full length) [8], the binding result is given as “no binding”.

B4: Rpl30 promoter DNA with YY1 motif (dsDNA)
DNA 1: TCGCTCCCCGGCCATCTTGGCGGCTGGTGT
DNA 2: ACACCAGCCGCCAAGATGGCCGGGGAGCGA
B4: the binding result with YY1 (full length) [9] is “binds”.

These data come from US20190062752, “Transcription Factor Trapping by RNA in Gene Regulatory Elements” (Whitehead Institute for Biomedical Research, published 2019).
